The text below walks through data of patent US20210196796A1 (SYNTHEKINE, published 2021).

The target in experiment [1] is T1, orthogonal hCD122 receptor (hoRb), hCD122 with H133D and Y134F (human, UniProt P14784 27-550).
T1 sequence: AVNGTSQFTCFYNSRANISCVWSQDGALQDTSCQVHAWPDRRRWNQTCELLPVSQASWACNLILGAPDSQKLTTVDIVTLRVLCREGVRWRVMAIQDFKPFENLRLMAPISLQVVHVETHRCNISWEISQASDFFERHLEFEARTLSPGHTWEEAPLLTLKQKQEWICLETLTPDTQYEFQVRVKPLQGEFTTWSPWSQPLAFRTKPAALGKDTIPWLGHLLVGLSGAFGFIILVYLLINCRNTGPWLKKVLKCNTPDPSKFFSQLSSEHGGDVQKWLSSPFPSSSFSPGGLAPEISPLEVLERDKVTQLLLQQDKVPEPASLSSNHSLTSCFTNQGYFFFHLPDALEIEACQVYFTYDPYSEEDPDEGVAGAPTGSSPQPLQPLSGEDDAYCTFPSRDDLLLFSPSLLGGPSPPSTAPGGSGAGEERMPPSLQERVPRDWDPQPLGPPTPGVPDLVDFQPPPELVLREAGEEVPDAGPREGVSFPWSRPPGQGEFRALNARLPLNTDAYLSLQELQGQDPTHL
Put plainly: cell-based or functional assay.

For experiment [2], the target named is T1, orthogonal hCD122 receptor (hoRb), …. Put plainly: cell-based or functional assay. This is another data set of the same source.
Throughout, for Relative Proliferation Fold Change 3F8 1:10: reference of the scale not given here.
Throughout, for Relative Proliferation Fold Change 3F8 1:2: reference of the scale not given here.
Throughout, for Relative Proliferation Fold Change 3F8 1:50: reference of the scale not given here.
Throughout, for Relative Proliferation Fold Change NKL 1:10: reference of the scale not given here.
Throughout, for Relative Proliferation Fold Change NKL 1:2: reference of the scale not given here.
Throughout, for Relative Proliferation Fold Change NKL 1:50: reference of the scale not given here.

B1: SQVLKT (ligand)
chain: APTSSSTKKTQLQLSQLLVLLKTILNGINNYKNPKLTRMLTFKFYMPKKATELKHLQCLEEELKPLEEVLNLAQSKNFHLRPRDLISNINVIVLELKGSETTFMCEYADETATIVEFLNRWITFCQSIISTLT
In the case of B1, in experiment [1], the “3F8 Ortho Proliferation Signal 1:2” value stood at 46400 cts/min, the “3F8 Ortho Proliferation Signal 1:10” value was determined as 54400 cts/min, the “3F8 Ortho Proliferation Signal 1:50” value is 28500 cts/min and the “Relative Proliferation Fold Change 3F8 1:2” value stood at 22.9 fold. In experiment [1], the “Relative Proliferation Fold Change 3F8 1:10” value was 54.9 fold and the “Relative Proliferation Fold Change 3F8 1:50” value came to 37.8 fold. In experiment [2], the “NKL Ortho Proliferation Signal 1:2” value stood at 61400, the “NKL Ortho Proliferation Signal 1:10” value turned out to be 63400, the “NKL Ortho Proliferation Signal 1:50” value came to 33400 and the “Relative Proliferation Fold Change NKL 1:2” value was determined as 4.68 fold. Besides, in experiment [2], the “Relative Proliferation Fold Change NKL 1:10” value came to 4.52 fold and the “Relative Proliferation Fold Change NKL 1:50” value was 2.5 fold.

B2: M39L, SQVLKA (ligand)
chain: APTSSSTKKTQLQLSQLLVLLKAILNGINNYKNPKLTRLLTFKFYMPKKATELKHLQCLEEELKPLEEVLNLAQSKNFHLRPRDLISNINVIVLELKGSETTFMCEYADETATIVEFLNRWITFCQSIISTLT
As to B2, in experiment [1], the “3F8 Ortho Proliferation Signal 1:2” value was 31200 cts/min, the “3F8 Ortho Proliferation Signal 1:10” value was 24600 cts/min, the “3F8 Ortho Proliferation Signal 1:50” value turned out to be 12200 cts/min and the “Relative Proliferation Fold Change 3F8 1:2” value is 179 fold. Besides, in experiment [1], the “Relative Proliferation Fold Change 3F8 1:10” value came out at 76.7 fold and the “Relative Proliferation Fold Change 3F8 1:50” value was determined as 37.1 fold. In experiment [2], the “NKL Ortho Proliferation Signal 1:2” value was 57600, the “NKL Ortho Proliferation Signal 1:10” value is 44100, the “NKL Ortho Proliferation Signal 1:50” value was 21800 and the “Relative Proliferation Fold Change NKL 1:2” value turned out to be 4.47 fold. Moreover, in experiment [2], the “Relative Proliferation Fold Change NKL 1:10” value is 2.84 fold and the “Relative Proliferation Fold Change NKL 1:50” value was 1.49 fold.

B3: F42K, SQVLKA (ligand)
chain: APTSSSTKKTQLQLSQLLVLLKAILNGINNYKNPKLTRMLTKKFYMPKKATELKHLQCLEEELKPLEEVLNLAQSKNFHLRPRDLISNINVIVLELKGSETTFMCEYADETATIVEFLNRWITFCQSIISTLT
As to B3, in experiment [1], the “3F8 Ortho Proliferation Signal 1:2” value stood at 10300 cts/min, the “3F8 Ortho Proliferation Signal 1:10” value is 5760 cts/min, the “3F8 Ortho Proliferation Signal 1:50” value was determined as 1570 cts/min and the “Relative Proliferation Fold Change 3F8 1:2” value was determined as 43.5 fold. In addition, in experiment [1], the “Relative Proliferation Fold Change 3F8 1:10” value stood at 12.7 fold and the “Relative Proliferation Fold Change 3F8 1:50” value turned out to be 2.2 fold. Besides, in experiment [2], the “NKL Ortho Proliferation Signal 1:2” value amounted to 11900, the “NKL Ortho Proliferation Signal 1:10” value stood at 10500, the “NKL Ortho Proliferation Signal 1:50” value was 8730 and the “Relative Proliferation Fold Change NKL 1:2” value came out at 0.83 fold. Further, in experiment [2], the “Relative Proliferation Fold Change NKL 1:10” value worked out at 0.6 fold and the “Relative Proliferation Fold Change NKL 1:50” value was 0.52 fold.

B4: R38W, SQVLKA (ligand)
chain: APTSSSTKKTQLQLSQLLVLLKAILNGINNYKNPKLTWMLTFKFYMPKKATELKHLQCLEEELKPLEEVLNLAQSKNFHLRPRDLISNINVIVLELKGSETTFMCEYADETATIVEFLNRWITFCQSIISTLT
Regarding B4, in experiment [1], the “3F8 Ortho Proliferation Signal 1:2” value amounted to 40400 cts/min, the “3F8 Ortho Proliferation Signal 1:10” value amounted to 41100 cts/min, the “3F8 Ortho Proliferation Signal 1:50” value is 24200 cts/min and the “Relative Proliferation Fold Change 3F8 1:2” value was 94.4 fold. In addition, in experiment [1], the “Relative Proliferation Fold Change 3F8 1:10” value was found to be 57.3 fold and the “Relative Proliferation Fold Change 3F8 1:50” value was determined as 21.4 fold. Also, in experiment [2], the “NKL Ortho Proliferation Signal 1:2” value worked out at 36700, the “NKL Ortho Proliferation Signal 1:10” value was determined as 23800, the “NKL Ortho Proliferation Signal 1:50” value was found to be 11500 and the “Relative Proliferation Fold Change NKL 1:2” value was 2.74 fold. In experiment [2], the “Relative Proliferation Fold Change NKL 1:10” value amounted to 1.51 fold and the “Relative Proliferation Fold Change NKL 1:50” value amounted to 0.77 fold.

B5: G27S, SQVLKA (ligand)
chain: APTSSSTKKTQLQLSQLLVLLKAILNSINNYKNPKLTRMLTFKFYMPKKATELKHLQCLEEELKPLEEVLNLAQSKNFHLRPRDLISNINVIVLELKGSETTFMCEYADETATIVEFLNRWITFCQSIISTLT
Turning to B5, in experiment [1], the “3F8 Ortho Proliferation Signal 1:2” value was found to be 40200 cts/min, the “3F8 Ortho Proliferation Signal 1:10” value was found to be 34700 cts/min, the “3F8 Ortho Proliferation Signal 1:50” value came out at 15200 cts/min and the “Relative Proliferation Fold Change 3F8 1:2” value stood at 94 fold. In experiment [1], the “Relative Proliferation Fold Change 3F8 1:10” value was determined as 33 fold and the “Relative Proliferation Fold Change 3F8 1:50” value amounted to 24.6 fold. Further, in experiment [2], the “NKL Ortho Proliferation Signal 1:2” value came out at 48900, the “NKL Ortho Proliferation Signal 1:10” value is 41000, the “NKL Ortho Proliferation Signal 1:50” value turned out to be 20700 and the “Relative Proliferation Fold Change NKL 1:2” value was determined as 4.21 fold. Besides, in experiment [2], the “Relative Proliferation Fold Change NKL 1:10” value is 2.94 fold and the “Relative Proliferation Fold Change NKL 1:50” value came out at 1.53 fold.

B6: G27K, SQVLKA (ligand)
chain: APTSSSTKKTQLQLSQLLVLLKAILNKINNYKNPKLTRMLTFKFYMPKKATELKHLQCLEEELKPLEEVLNLAQSKNFHLRPRDLISNINVIVLELKGSETTFMCEYADETATIVEFLNRWITFCQSIISTLT
Turning to B6, in experiment [1], the “3F8 Ortho Proliferation Signal 1:2” value amounted to 37800 cts/min, the “3F8 Ortho Proliferation Signal 1:10” value was 23700 cts/min, the “3F8 Ortho Proliferation Signal 1:50” value was 10300 cts/min and the “Relative Proliferation Fold Change 3F8 1:2” value came out at 170 fold. In addition, in experiment [1], the “Relative Proliferation Fold Change 3F8 1:10” value is 47.9 fold and the “Relative Proliferation Fold Change 3F8 1:50” value came out at 7.82 fold. Moreover, in experiment [2], the “NKL Ortho Proliferation Signal 1:2” value amounted to 36300, the “NKL Ortho Proliferation Signal 1:10” value stood at 30600, the “NKL Ortho Proliferation Signal 1:50” value was determined as 15200 and the “Relative Proliferation Fold Change NKL 1:2” value was determined as 2.93 fold. Also, in experiment [2], the “Relative Proliferation Fold Change NKL 1:10” value came to 1.94 fold and the “Relative Proliferation Fold Change NKL 1:50” value worked out at 1.03 fold.

B7: R38G, SQVLKA (ligand)
chain: APTSSSTKKTQLQLSQLLVLLKAILNGINNYKNPKLTGMLTFKFYMPKKATELKHLQCLEEELKPLEEVLNLAQSKNFHLRPRDLISNINVIVLELKGSETTFMCEYADETATIVEFLNRWITFCQSIISTLT
Take B7: in experiment [1], the “3F8 Ortho Proliferation Signal 1:2” value was determined as 27200 cts/min, the “3F8 Ortho Proliferation Signal 1:10” value was 32100 cts/min, the “3F8 Ortho Proliferation Signal 1:50” value amounted to 14200 cts/min and the “Relative Proliferation Fold Change 3F8 1:2” value is 47.5 fold. Further, in experiment [1], the “Relative Proliferation Fold Change 3F8 1:10” value turned out to be 21.6 fold and the “Relative Proliferation Fold Change 3F8 1:50” value turned out to be 8.42 fold. In addition, in experiment [2], the “NKL Ortho Proliferation Signal 1:2” value was 20100, the “NKL Ortho Proliferation Signal 1:10” value is 18100, the “NKL Ortho Proliferation Signal 1:50” value is 9740 and the “Relative Proliferation Fold Change NKL 1:2” value was found to be 1.78 fold. For the same molecule, in experiment [2], the “Relative Proliferation Fold Change NKL 1:10” value was 1.19 fold and the “Relative Proliferation Fold Change NKL 1:50” value turned out to be 0.67 fold.

B8: M39V, SQVLKA (ligand)
chain: APTSSSTKKTQLQLSQLLVLLKAILNGINNYKNPKLTRVLTFKFYMPKKATELKHLQCLEEELKPLEEVLNLAQSKNFHLRPRDLISNINVIVLELKGSETTFMCEYADETATIVEFLNRWITFCQSIISTLT
Regarding B8, in experiment [1], the “3F8 Ortho Proliferation Signal 1:2” value stood at 29200 cts/min, the “3F8 Ortho Proliferation Signal 1:10” value stood at 22900 cts/min, the “3F8 Ortho Proliferation Signal 1:50” value is 9630 cts/min and the “Relative Proliferation Fold Change 3F8 1:2” value worked out at 110 fold. Also, in experiment [1], the “Relative Proliferation Fold Change 3F8 1:10” value came to 51.3 fold and the “Relative Proliferation Fold Change 3F8 1:50” value was found to be 16.7 fold. In addition, in experiment [2], the “NKL Ortho Proliferation Signal 1:2” value is 42800, the “NKL Ortho Proliferation Signal 1:10” value turned out to be 31300, the “NKL Ortho Proliferation Signal 1:50” value came out at 15300 and the “Relative Proliferation Fold Change NKL 1:2” value was found to be 2.72 fold. In experiment [2], the “Relative Proliferation Fold Change NKL 1:10” value was found to be 1.85 fold and the “Relative Proliferation Fold Change NKL 1:50” value was 0.92 fold.

B9: ΔG27, SQVLKA (ligand)
chain: APTSSSTKKTQLQLSQLLVLLKAILNINNYKNPKLTRMLTFKFYMPKKATELKHLQCLEEELKPLEEVLNLAQSKNFHLRPRDLISNINVIVLELKGSETTFMCEYADETATIVEFLNRWITFCQSIISTLT
As for B9, in experiment [1], the “3F8 Ortho Proliferation Signal 1:2” value turned out to be 28400 cts/min, the “3F8 Ortho Proliferation Signal 1:10” value is 21900 cts/min, the “3F8 Ortho Proliferation Signal 1:50” value worked out at 6730 cts/min and the “Relative Proliferation Fold Change 3F8 1:2” value came to 105 fold. In experiment [1], the “Relative Proliferation Fold Change 3F8 1:10” value amounted to 30.4 fold and the “Relative Proliferation Fold Change 3F8 1:50” value came out at 10.2 fold. For the same molecule, in experiment [2], the “NKL Ortho Proliferation Signal 1:2” value is 46600, the “NKL Ortho Proliferation Signal 1:10” value was found to be 31400, the “NKL Ortho Proliferation Signal 1:50” value is 14600 and the “Relative Proliferation Fold Change NKL 1:2” value was 3.29 fold. In experiment [2], the “Relative Proliferation Fold Change NKL 1:10” value was 2.05 fold and the “Relative Proliferation Fold Change NKL 1:50” value is 1.04 fold.

B10: ΔQ13, SQVLKA (ligand)
chain: APTSSSTKKTQLLSQLLVLLKAILNGINNYKNPKLTRMLTFKFYMPKKATELKHLQCLEEELKPLEEVLNLAQSKNFHLRPRDLISNINVIVLELKGSETTFMCEYADETATIVEFLNRWITFCQSIISTLT
As to B10, in experiment [1], the “3F8 Ortho Proliferation Signal 1:2” value is 37600 cts/min, the “3F8 Ortho Proliferation Signal 1:10” value was 26100 cts/min, the “3F8 Ortho Proliferation Signal 1:50” value came to 12400 cts/min and the “Relative Proliferation Fold Change 3F8 1:2” value worked out at 102 fold. Further, in experiment [1], the “Relative Proliferation Fold Change 3F8 1:10” value was 23.7 fold and the “Relative Proliferation Fold Change 3F8 1:50” value amounted to 7.63 fold. For the same molecule, in experiment [2], the “NKL Ortho Proliferation Signal 1:2” value came to 26700, the “NKL Ortho Proliferation Signal 1:10” value is 20700, the “NKL Ortho Proliferation Signal 1:50” value was 11800 and the “Relative Proliferation Fold Change NKL 1:2” value stood at 2.06 fold. Further, in experiment [2], the “Relative Proliferation Fold Change NKL 1:10” value was found to be 1.39 fold and the “Relative Proliferation Fold Change NKL 1:50” value was 0.79 fold.
